In patent US20260132197A1 (NANJING LEGEND BIOTECH, published 2026):

Columns and labels:
[1] = molecular target: T1, cynomolgus CD47 on CHO-K1 stable cell line (cynomolgus, UniProt A0A5F8AK49 19-323 (rhesus entry)); assay: flow cytometry on cynomolgus CD47 CHO-K1 cells
T1 construct: whole, on cells; also called cynomolgus CD47/CHO-K1

[2] = molecular target: T2, human CD47 on cells (SHP-77 tumor cells, human red blood cells, CCRF-CEM cells, human CD47 CHO-K1 stable cell … (human, UniProt Q08722 19-323)); assay: flow cytometry on human RBCs;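 note: antibody binding measured by flow cytometry as geometric mean fluorescence intensity over a range of antibody concentrations, with EC50 and maximum taken from a sigmoidal dose-response fit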
T2 construct: whole, on cells; also called RBC

[3] = molecular target: T2, human CD47 on cells (SHP-77 tumor …); assay: cell-based or functional assay
[4] = molecular target: T2, human CD47 on cells (SHP-77 tumor …); assay: flow cytometry on human CD47 CHO-K1 cells; plateau not reached, not accurate
[5] = molecular target: T2, human CD47 on cells (SHP-77 tumor …); assay: flow cytometry on SHP-77 cells
[6] = molecular target: T3, wild type human CD47 (Acro Biosystems, cat. no. CD7-H5227) (human, UniProt Q08722 19-139); assay: SPR, IgG captured, CD47 in flow; exp 3;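 note: other target is a CD47 mutein carrying C33G, used to obtain true monovalent affinity, with kon and koff fitted from SPR binding curves and KD derived from both rates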
T3 construct: Bought protein used as SPR analyte; also called Human CD47 wt; wild-type CD47

Human CD47-C33G [7] = molecular target: T4, Human CD47-C33G (human, UniProt Q08722 19-135); assay: SPR, IgG captured, CD47 in flow; exp 3;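 note: other target is a CD47 mutein carrying C33G, used to obtain true monovalent affinity, with kon and koff fitted from SPR binding curves and KD derived from both rates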
T4 construct: also called CD47 mutein with C33G mutation

[8] = molecular target: T1, cynomolgus CD47 on CHO-K1 stable cell …; assay: flow cytometry on cynomolgus CD47 CHO-K1 cells; plateau not reached, not accurate
[9] = molecular target: T3, wild type human CD47 (Acro Biosystems, …); assay: SPR, IgG captured, CD47 in flow; exp 1;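 note: biacore T200 SPR using IgG from supernatants of transfected HEK293 cells, rate constants fitted to association and dissociation curves, Kd derived from koff over kon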
Human CD47-C33G [10] = molecular target: T4, Human CD47-C33G; assay: SPR, IgG captured, CD47 in flow; exp 1;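 note: biacore T200 SPR using IgG from supernatants of transfected HEK293 cells, rate constants fitted to association and dissociation curves, Kd derived from koff over kon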
[11] = molecular target: T3, wild type human CD47 (Acro Biosystems, …); assay: SPR, IgG captured, CD47 in flow; exp 4;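 note: biacore T200 SPR using IgG from transfected HEK293 supernatants against wild-type human CD47 or its C33G mutein, rates fitted to association and dissociation curves, KD estimated from them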
Human CD47-C33G [12] = molecular target: T4, Human CD47-C33G; assay: SPR, IgG captured, CD47 in flow; exp 4;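 note: biacore T200 SPR using IgG from transfected HEK293 supernatants against wild-type human CD47 or its C33G mutein, rates fitted to association and dissociation curves, KD estimated from them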
[13] = molecular target: T2, human CD47 on cells (SHP-77 tumor …); assay: flow cytometry on human CD47 CHO-K1 cells

Binder	EC50 [1] [nM]	EC50 [2] [nM]	Fitted Maximal MFI [2] [MFI]	CCRF-CEM phagocytosis EC50 [3] [nM]	CCRF-CEM phagocytosis, Phagocytosis (%) [3] [%]	EC50 [4] [nM]	EC50 [5] [nM]	Fitted Maximal MFI [5] [MFI]	EC50 [8] [nM]	Kd [11] [nM]	koff [11] [s⁻¹]	kon [11] [M⁻¹ s⁻¹]	Kd (Human CD47-C33G [12]) [nM]	koff (Human CD47-C33G [12]) [s⁻¹]	kon (Human CD47-C33G [12]) [M⁻¹ s⁻¹]	EC50 [13] [nM]	also measured
Hu5F9 (antibody, V domains shown) VH: QVQLVQSGAEVKKPGASVKVSCKASGYTFTNYNMHWVRQAPGQRLEWMGTIYPGNDDTSYNQKFKDRVTITADTSASTAYMELSSLRSEDTAVYYCARGGYRAMDYWGQGTLVTVSS VL: DIVMTQSPLSLPVTPGEPASISCRSSQSIVYSNGNTYLGWYLQKPGQSPQLLIYKVSNRFSGVPDRFSGSGSGTDFTLKISRVEAEDVGVYYCFQGSHVPYTFGQGTKLEIK	0.6																
108VH10.Mk / 108VL10.Me (antibody, V domains shown, 4D5-framework series; also called VH10.Mk VL10.Me) VH: EVQLVESGGGLVQPGGSLRLSCAASGFTFSHHWIHWVRQAPGKGLEWVAMIDASDSETRLSQKVKDRFTISADTSKNTAYLQMNSLRAEDTAVYYCSRLGRYYFDYWGQGTLVTVSS VL: DIQMTQSPSSLSASVGDRVTITCRASQSISSYLNWYQQKPGKAPKLLIYGASSRYSGVPSRFSGSRSGTDFTLTISSLQPEDFATYYCGESYGHLYTFGQGTKVEIK		3.9	21700	0.29	57.6	5.4	5.3	30000	6.4								Kd [6]: 9 nM; koff [6]: 0.0086 s⁻¹; kon [6]: 950000 M⁻¹ s⁻¹; Kd (Human CD47-C33G [7]): 87 nM; koff (Human CD47-C33G [7]): 0.019 s⁻¹; kon (Human CD47-C33G [7]): 210000 M⁻¹ s⁻¹
108VH5.M27 / 108VL1.M5 (antibody, human IgG4 S228P, kappa, V domains shown, Full-length IgG4 (S228P), kappa; also called VH5.M27 VL1.M5) VH: EVQLVQSGAEVKKPGASVKVSCKASGYTFTHHWMHWVRQAPGQGLEWMGMIDASDYETRYAQKFQGRVTMTRDTSTSTVYMELSSLRSEDTAVYYCARLGRYYFDYWGQGTLVTVSS VL: EIVLTQSPATLSLSPGERATLSCRASQSVSSYLAWYQQKPGQAPRLLIYGASNRATGIPARFSGSGSGTDFTLTISSLEPEDFAVYYCGESYGHLYTFGGGTKVEIKR	3.4	4.7	26900	0.28	64.3		9	36500		7.4	0.0036	490000	39	0.0085	220000	2.6	

Second part, led by results:

EC50 [1] [nM]	EC50 [2] [nM]	Fitted Maximal MFI [2] [MFI]	CCRF-CEM phagocytosis EC50 [3] [nM]	CCRF-CEM phagocytosis, Phagocytosis (%) [3] [%]	EC50 [4] [nM]	EC50 [5] [nM]	Fitted Maximal MFI [5] [MFI]	EC50 [8] [nM]	Kd [11] [nM]	koff [11] [s⁻¹]	kon [11] [M⁻¹ s⁻¹]	Kd (Human CD47-C33G [12]) [nM]	koff (Human CD47-C33G [12]) [s⁻¹]	kon (Human CD47-C33G [12]) [M⁻¹ s⁻¹]	EC50 [13] [nM]	Binder	also measured
	11.1	9460			20	25.1	6250	22.5								108VH5.M6 / 108VL1.M5 (antibody, human IgG4 S228P, kappa, V domains shown, Full-length IgG4 (S228P), kappa; also called VH5.M6 VL1.M5) VH: EVQLVQSGAEVKKPGASVKVSCKASGYTFTHHYMHWVRQAPGQGLEWMGMIDASDSETRLSQKFKDRVTMTRDTSTSTVYMELSSLRSEDTAVYYCARLGRYYFDYWGQGTLVTVSS VL: EIVLTQSPATLSLSPGERATLSCRASQSVSSYLAWYQQKPGQAPRLLIYGASNRATGIPARFSGSGSGTDFTLTISSLEPEDFAVYYCGESYGHLYTFGGGTKVEIKR	Kd [9]: 8 nM; koff [9]: 0.0039 s⁻¹; kon [9]: 490000 M⁻¹ s⁻¹; Kd (Human CD47-C33G [10]): 800 nM; koff (Human CD47-C33G [10]): 0.097 s⁻¹; kon (Human CD47-C33G [10]): 120000 M⁻¹ s⁻¹
3.2	5.8	38800	0.33	64		8.1	42100		6.4	0.0028	440000	33	0.0058	170000	2.7	108VH5.M23 / 108VL1.M5 (antibody, human IgG4 S228P, kappa, V domains shown, Full-length IgG4 (S228P), kappa; also called VH5.M23 VL1.M5) VH: EVQLVQSGAEVKKPGASVKVSCKASGYTFTHHWMHWVRQAPGQGLEWMGMIDASDKETRYAQKFQGRVTMTRDTSTSTVYMELSSLRSEDTAVYYCARLGRYYFDYWGQGTLVTVSS VL: EIVLTQSPATLSLSPGERATLSCRASQSVSSYLAWYQQKPGQAPRLLIYGASNRATGIPARFSGSGSGTDFTLTISSLEPEDFAVYYCGESYGHLYTFGGGTKVEIKR	
